Measured values published in patent US11167035B2, “Insulin compositions and method of making a composition” (Novo Nordisk A/S, priority 2005, dated 2021).

Assay: SEC on Superose 6 PC, insulin self association
Format: physicochemical
Details: 600 μM insulin
Method: Analysis by size exclusion chromatography (SEC) on a Superose 6 PC column (0.32*30 cm) using isotonic 10 mM tris-buffered saline optionally added 2 mM phenol at 37° C. and pH 7.3, injection volume of 20 μL, flow of 0.05 mL/min and run time 130 min. First reference of Blue dextran (>>5 MDa, KAV 0.0), Thyroglobulin (669 kDa, KAV 0.28), Ferritin (440 kDa, KAV 0.39), Ovalbumin (44.5 kDa, KAV 0.56), Ribonuclease (13.7 kDa, KAV 0.69) and a second reference of Albumin (66 kDa, KAV 0.53), Co(III)insulin-hexamer (35 kDa, KAV 0.61), and monomeric insulin X2 (6 kDa, KAV 0.73). Retention time of blue dextran was 17.9 min (to) and 0.74 min without column (td), and retention time of albumin (HSA) was about 34.1 min, KAV=(t−t0)/(V/f+td−t0) with
KAV area peak1 is measured from KAV=0 to KAV=0.46 (32 min) as relative area % of total area for KAV<0.46 corresponding to self association larger than albumin. For KAV peak 1 about 0.56 (albumin size) integration cut is between albumin size and insulin hexamer size.
For SEC method without phenol in eluent peak1 contain associated forms larger than albumin and peak2 contain dihexameric, hexameric, dimeric and monomeric forms of insulin.
For SEC method including 2 mM phenol in the eluent peak1 contain dihexameric and other larger forms of insulin and peak2 contain hexameric, dimeric and monomeric forms of insulin.
The formulations were studied after storage 2 week at 37C compared to storage at 5C by the SEC method described in example 4 using an eluent with 2 mM phenol. Reference formulations without citrate at 3, 5 and 6 Zn/6ins.deriv. were included.

Substance | Kav 2 Zn peak 1 (2 zinc/hexamer) | Relative area % peak 1 (2 zinc/hexamer) [%] | Kav 6 Zn peak 1 (6 zinc/hexamer) | Relative area % peak 1 (6 zinc/hexamer) [%]
B29Nε-hexadecandioyl-gamma-Glu-(3-(2-{2-[2-(2-amino-ethoxy)-ethoxy]-ethoxy}-ethoxy)-propionyl desB30 human insulin | 0.09 | 79 | 0.06 | 89
B29Nε-[(5-{[(2-Carboxy-ethyl)-(15-carboxy-pentadecanoyl)-amino]-methyl}-furan-2-carbonyl) desB30 human insulin | 0.02 | 81 | 0.03 | 96
B29Nε-(4-{[(2-Carboxy-ethyl)-(15-carboxy-pentadecanoyl)-amino]-methyl}-benzoyl) desB30 human insulin | 0.01 | 84 | 0.00 | 98
B29Nε-(2-{[(2-Carboxy-ethyl)-(15-carboxy-pentadecanoyl)-amino]-methyl}-benzoyl) desB30 human insulin | 0.16 | 54 | 0.03 | 93
B29Nε-(4-{[(2-Carboxy-ethyl)-(14-carboxy-tetradecanoyl)-amino]-methyl}-benzoyl) desB30 human insulin | 0.09 | 55 | 0.00 | 96
